The values that follow come from patent US20230235052A1 (GRACELL BIOTECHNOLOGIES SHANGHAI, published 2023).

The target of test [1] is T1, human CD19 antigen (human, UniProt P15391 20-291, limits assumed).
T1 sequence (looked up): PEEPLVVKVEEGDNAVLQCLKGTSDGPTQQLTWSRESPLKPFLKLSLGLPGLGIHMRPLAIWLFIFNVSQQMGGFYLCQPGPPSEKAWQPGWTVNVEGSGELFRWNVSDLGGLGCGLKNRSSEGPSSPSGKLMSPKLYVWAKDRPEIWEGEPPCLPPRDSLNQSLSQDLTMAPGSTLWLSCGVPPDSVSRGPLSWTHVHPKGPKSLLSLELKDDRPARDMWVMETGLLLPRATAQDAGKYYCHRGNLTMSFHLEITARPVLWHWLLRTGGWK
The test can be described thus: SPR (Biacore), antibody captured via Fc. Here is the method: Part of the antibodies in Example 1 were tested for affinity, and the composition of the heavy chain variable regions and the light chain variable regions of the antibodies to be tested are shown in Table 2.
HEK293 cells were used to express the antibodies to be tested and Protein A was used for purification. The surface plasmon resonance technique (SPR) was used for determination, and the Fc capture method was used for antibody fixation.
For orientation: Surface plasmon resonance follows binding to a sensor surface in real time, without labels.

The target of test [2] is T2, CD19 on CD19-positive target cells SU-DHL-10 and Raji (human, UniProt P15391 20-556).
T2 construct: whole, on cells; also called cell surface antigens
T2 sequence (looked up): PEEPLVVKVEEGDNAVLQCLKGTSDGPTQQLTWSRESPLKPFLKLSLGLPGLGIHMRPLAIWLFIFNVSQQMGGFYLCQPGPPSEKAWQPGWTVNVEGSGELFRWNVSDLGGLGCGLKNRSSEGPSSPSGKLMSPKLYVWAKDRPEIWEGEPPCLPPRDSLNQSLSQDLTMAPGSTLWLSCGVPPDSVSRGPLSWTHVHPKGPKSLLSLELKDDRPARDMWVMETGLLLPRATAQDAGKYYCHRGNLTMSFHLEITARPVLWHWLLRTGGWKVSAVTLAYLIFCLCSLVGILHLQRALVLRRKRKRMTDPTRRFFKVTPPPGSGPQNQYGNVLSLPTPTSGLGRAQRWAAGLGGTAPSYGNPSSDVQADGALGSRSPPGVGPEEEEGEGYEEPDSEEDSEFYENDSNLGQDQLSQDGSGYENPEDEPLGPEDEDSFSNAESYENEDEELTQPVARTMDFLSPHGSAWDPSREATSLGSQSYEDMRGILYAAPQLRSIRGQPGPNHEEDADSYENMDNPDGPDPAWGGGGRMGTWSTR
The test can be described thus: flow cytometry on CD19-positive Raji cells, antibody titrated, fluorescent anti-Fc secondary antibody, percent positive cells (panel 'scFv binding to Raji'). Here is the method:
(§1) Part of the antibodies in Example 1 were detected for surface binding to CD19-positive target cells SU-DHL-10 and Raji.
(§2) CD19-positive SU-DHL-10 or Raji cell lines were used, and humanized antibodies at different concentrations were used to bind the target cells. After binding, secondary antibodies (fluorescent labeled anti-Fc antibodies) were used for staining. After cleaning the residual antibodies, the positive rate was analyzed by flow cytometry to draw the binding curve of antibodies binding to cell surface antigens.

Test [3] concerns the target T2, CD19 on CD19-positive target cells …. The test can be described thus: flow cytometry on CD19-positive SU-DHL-10 cells, antibody titrated, fluorescent anti-Fc secondary antibody, percent positive cells (panel 'scFv binding to SU-DHL-10'). Here is the method: as §1, §2
Background: A flow cytometer gives signals particle by particle.

Usually Kd stands for the equilibrium constant for the complex coming apart. A high value points to a looser complex. A word on the koff: it is a measure of how fast the partners let go of each other. A word on the kon: it is the rate constant with which the complex forms. Lower therefore signals slow association. Usually EC50 (read off the curve) stands for the concentration at which the effect is half-maximal. Lower therefore signals a more potent agent.

B1: humanized CD19 antibody VH4 + VL6 (antibody, V domains shown)
VH: QVQLQESGPGLVKPSQTLSLTCTVSGVSLPDYGVSWIRQPPGKGLEWLGVIWGSETTYYNSALKSRLTISKDTSKNQVSLKLSSVTAADTAVYYCAKHYYYGGSYAMDYWGQGTTVTVSS
VL: DIQMTQSPSSLSASVGDRVTITCRASQDISKYLNWYQQKPGGAVKLLIYHTSRLHSGVPSRFSGSGSGTDYTFTISSLQPEDIATYFCQQGNTLPYTFGGGTKLEIK
In test [1], B1 yielded a Kd of 9.31 nM, a koff of 0.00121 s⁻¹ and an association rate constant (kon) of 129000 M⁻¹ s⁻¹.

B2: humanized CD19 antibody VH9 + VL5 (antibody, V domains shown)
VH: QVQLQESGPGLVKPSETLSLTCTVSGVSLPDYGVSWIRQPPGKGLEWLGVIWGSETTYYNSALKSRLTISKDTSKSQVSLKLSSVTAADTAVYYCAKHYYYGGSYAMDYWGQGTLVTVSS
VL: DIQMTQSPSSLSASVGDRVTISCRASQDISKYLNWYQQKPGKAPKLLIYHTSRLHSGVPSRFSGSGSGTDYTFTISSLQPEDIATYFCQQGNTLPYTFGGGTKLEIK
notes: also called H9L5
In test [1], B2 displayed a Kd of 1.7 nM, a koff of 0.000186 s⁻¹ and a kon of 109000 M⁻¹ s⁻¹.

B3: humanized CD19 antibody VH8 + VL6 (antibody, V domains shown)
VH: QVKLQESGPGLVKPSETLSLTCTVSGVSLPDYGVSWIRQPPGKGLEWIGVIWGSETTYYNSALKSRVTISKDTSKSQVFLKLSSVTAADTAVYYCAKHYYYGGSYAMDYWGQGTLVTVSS
VL: DIQMTQSPSSLSASVGDRVTITCRASQDISKYLNWYQQKPGGAVKLLIYHTSRLHSGVPSRFSGSGSGTDYTFTISSLQPEDIATYFCQQGNTLPYTFGGGTKLEIK
With B3, in test [2], the “EC50 (read off the curve)” value was approximately 0.04 µg/mL. Also, in test [1], the Kd came to 3.26 nM, the koff was determined as 0.000383 s⁻¹ and the kon is 117000 M⁻¹ s⁻¹. In addition, in test [3], the “EC50 (read off the curve)” value was approximately 0.01 µg/mL.

B4: humanized CD19 antibody VH10 + VL5 (antibody, V domains shown)
VH: QVKLQESGPGLVKPSETLSLTCTVSGVSLPDYGVSWIRQPPGKGLEWLGVIWGSETTYYNSALKSRLTISKDTSKSQVFLKLSSVTAADTAVYYCAKHYYYGGSYAMDYWGQGTLVTVSS
VL: DIQMTQSPSSLSASVGDRVTISCRASQDISKYLNWYQQKPGKAPKLLIYHTSRLHSGVPSRFSGSGSGTDYTFTISSLQPEDIATYFCQQGNTLPYTFGGGTKLEIK
B4: the 50% effective concentration (EC50 (read off the curve)) in test [2] was approximately 0.03 µg/mL. In test [1], this molecule returned a Kd of 1.55 nM, an off-rate constant (koff) of 0.000182 s⁻¹ and a kon of 118000 M⁻¹ s⁻¹.

B5: humanized CD19 antibody VH7 + VL6 (antibody, V domains shown)
VH: QVKLQESGPGLVKPSETLSLTCTVSGVSLPDYGVSWIRQPPGKGLEWLGVIWGSETTYYNSALKSRLTISKDTSKNQFSLKLSSVTAADTAVYYCAKHYYYGGSYAMDYWGQGTLVTVSS
VL: DIQMTQSPSSLSASVGDRVTITCRASQDISKYLNWYQQKPGGAVKLLIYHTSRLHSGVPSRFSGSGSGTDYTFTISSLQPEDIATYFCQQGNTLPYTFGGGTKLEIK
In the case of B5, in test [2], the concentration for a half-maximal effect (EC50 (read off the curve)) is approximately 0.03 µg/mL. In test [1], this molecule had a dissociation constant (Kd) of 4.57 nM, a koff of 0.000592 s⁻¹ and a kon of 130000 M⁻¹ s⁻¹. In test [3], the “EC50 (read off the curve)” value is approximately 0.01 µg/mL.

B6: humanized CD19 antibody VH8 + VL5 (antibody, V domains shown)
VH: QVKLQESGPGLVKPSETLSLTCTVSGVSLPDYGVSWIRQPPGKGLEWIGVIWGSETTYYNSALKSRVTISKDTSKSQVFLKLSSVTAADTAVYYCAKHYYYGGSYAMDYWGQGTLVTVSS
VL: DIQMTQSPSSLSASVGDRVTISCRASQDISKYLNWYQQKPGKAPKLLIYHTSRLHSGVPSRFSGSGSGTDYTFTISSLQPEDIATYFCQQGNTLPYTFGGGTKLEIK
Take B6: in test [2], the “EC50 (read off the curve)” value was approximately 0.03 µg/mL. In test [1], this molecule displayed a Kd of 3.87 nM, a koff of 0.000602 s⁻¹ and a kon of 155000 M⁻¹ s⁻¹. In addition, the 50% effective concentration (EC50 (read off the curve)) in test [3] is approximately 0.01 µg/mL.
